Assay results: patent publication US8119364B2, “Methods for generating analogs of coenzyme A” (The Regents of the University of California, priority 2005, dated 2012)

Substrate: CC(C)(CO)[C@@H](O)C(=O)NCCC(=O)O
Assay: Kinetic assay of pantetheine analogs as substrates of PanK
Format: biochemical
Conditions: other: compound as substrate of E. coli PanK
Protocol: As mentioned earlier, phosphorylation of the primary hydroxyl group of pantothenate by the first protein in the CoA biosynthesis pathway, PanK, is believed to be the rate limiting step in vivo. Jackowski and Rock, J. Bacteria 148:926, 1981. Due to its role as the gatekeeper of CoA biosynthesis, each of the new analogs was assayed for kinetic activity with PanK (Table 2).
The assay was performed as previously described using the prototypical bacterial PanK, CoAA from E. coli. Kumar and Aldrich, Org. Lett. 5:613, 2003. The reaction of CoAA with the natural substrate pantothenate gave values that conformed to those previously reported in the literature. Worthington and Burkart, Org. Biomol. Chem. 4:44, 2005; Strauss and Begley, J. Biol. Chem. 277:48205, 2002. […] Conversely, compounds with PEG linkers between the pantoic acid moiety and the bioorthogonal terminus were poor substrates for CoAA.

B1: E. coli PanK (CoAA) (Escherichia coli K-12) (protein)
chain: MSIKEQTLMTPYLQFDRNQWAALRDSVPMTLSEDEIARLKGINEDLSLEEVAEIYLPLSRLLNFYISSNLRRQAVLEQFLGTNGQRIPYIISIAGSVAVGKSTTARVLQALLSRWPEHRRVELITTDGFLHPNQVLKERGLMKKKGFPESYDMHRLVKFVSDLKSGVPNVTAPVYSHLIYDVIPDGDKTVVQPDILILEGLNVLQSGMDYPHDPHHVFVSDFVDFSIYVDAPEDLLQTWYINRFLKFREGAFTDPDSYFHNYAKLTKEEAIKTAMTLWKEINWLNLKQNILPTRERASLILTKSANHAVEEVRLRK
Work on B1 yielded a Km of 28.56 ± 1.77 µM, a kcat of 0.521 ± 0.00967 s⁻¹ and a kcat/Km of 18200 ± 680 M⁻¹ s⁻¹.
